What was measured:
[1] = target: SuSy3-HIS protein (tomato sucrose synthase SuSy3, Solyc07g042550.2.1, His-tagged, expressed in vitro and purified)
[2] = target: SlSuSy3^S11A (SuSy3 protein with the serine at position 11 mutated to alanine)
Sequence of SlSuSy3^S11A (SuSy3 protein with the serine at position 11 mutated to alanine) (chain, as listed by the source S11A): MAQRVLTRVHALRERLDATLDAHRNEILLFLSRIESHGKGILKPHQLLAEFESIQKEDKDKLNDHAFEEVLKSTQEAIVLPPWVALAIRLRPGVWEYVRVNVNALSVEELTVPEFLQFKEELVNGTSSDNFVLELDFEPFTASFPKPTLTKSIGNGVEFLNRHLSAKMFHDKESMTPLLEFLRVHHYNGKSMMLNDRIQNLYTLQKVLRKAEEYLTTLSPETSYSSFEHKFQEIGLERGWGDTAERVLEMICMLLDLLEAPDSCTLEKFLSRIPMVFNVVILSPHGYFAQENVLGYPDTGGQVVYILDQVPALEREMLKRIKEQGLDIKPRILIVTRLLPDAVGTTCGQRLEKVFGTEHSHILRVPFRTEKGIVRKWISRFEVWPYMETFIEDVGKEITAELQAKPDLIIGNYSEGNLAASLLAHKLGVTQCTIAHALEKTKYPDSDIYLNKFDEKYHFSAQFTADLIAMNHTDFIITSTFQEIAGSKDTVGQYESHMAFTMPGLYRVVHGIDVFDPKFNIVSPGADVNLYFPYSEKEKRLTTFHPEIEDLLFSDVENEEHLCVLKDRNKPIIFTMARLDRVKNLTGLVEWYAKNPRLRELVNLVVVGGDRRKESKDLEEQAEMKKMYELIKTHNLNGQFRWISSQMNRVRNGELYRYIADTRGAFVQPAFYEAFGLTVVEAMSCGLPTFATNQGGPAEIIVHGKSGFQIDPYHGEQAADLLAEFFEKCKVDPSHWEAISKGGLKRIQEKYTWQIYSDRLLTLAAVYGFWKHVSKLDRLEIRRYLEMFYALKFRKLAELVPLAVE

Sequence of SuSy3-HIS protein (tomato sucrose synthase SuSy3, Solyc07g042550.2.1, His-tagged, expressed in vitro and purified) (chain, as listed by the source): as the sequence (chain, as listed by the source S11A) above, with A11S counted along it

Protein | in vitro phosphorylation (gamma-32P-ATP, SDS-PAGE, autoradiography) [1] | in vitro phosphorylation assay (autoradiography) [2] | in vitro phosphorylation assay (autoradiography) [1] | mass spectrometry of phosphorylated residues after co-incubation [1]
mCDPK8-His protein without kinase activity (CDPK8 lacking two key amino acids) (protein) MGNCCGTPGNSSENKKKKNKPNPFALDYGATQASGGDGNKLVVLKDPTGHNIQEKYDLGCERGEFGVTYLCTDVDTGDKYACKSISKKKLRTAVDIDDVRREVEIMKHLPKHPNIVTLKDTYEDDNAVHIVMELCEGGELFDRIVARGHYTERAAAVIMKTIVEVVQMCHMHGVMHRDLKPENFLFGNKKETAPLKAIDFGLSVFFKPGERFNEIVGSPYYMAPEVLKRNYGPEVDVWSAGVILYILLCGVPPFWAETEQGVAQAIIRSVVDFKRDPWPKVSDNAKDLVKKMLDPDPTRRLTAQQVLEHTWLQNIKKAPNVSLGETVKARLKQFSVMNKLKKRALTIMAEFLSAEEVAGMKDAFDMMDTGKKGKINLGELKNGLQKLGHQIPDVDLQILMEAADVDGDGSLNYGEFVAVSVHLRKMANDEHLHKAFSVFDRDQSGYIEIEELRSALSDEDGGNSEEVINAIMHDVDTDKDGRISYEEFAAMMKAGTDWRKASRQYSRERFNSLSLKLMRDGSIQVGKEEGR | the mCDPK8 protein lacking two key amino acids has no kinase activity and cannot phosphorylate the SuSy3 protein | – | – | –
CDPK8-HIS protein (tomato calcium-dependent protein kinase 8, Solyc11g065660, His-tagged, expressed in vitro and purified) (protein) MGNCCGTPGNSSENKKKKNKPNPFALDYGATQASGGDGNKLVVLKDPTGHNIQEKYDLGCELGRGEFGVTYLCTDVDTGDKYACKSISKKKLRTAVDIDDVRREVEIMKHLPKHPNIVTLKDTYEDDNAVHIVMELCEGGELFDRIVARGHYTERAAAVIMKTIVEVVQMCHMHGVMHRDLKPENFLFGNKKETAPLKAIDFGLSVFFKPGERFNEIVGSPYYMAPEVLKRNYGPEVDVWSAGVILYILLCGVPPFWAETEQGVAQAIIRSVVDFKRDPWPKVSDNAKDLVKKMLDPDPTRRLTAQQVLEHTWLQNIKKAPNVSLGETVKARLKQFSVMNKLKKRALTIMAEFLSAEEVAGMKDAFDMMDTGKKGKINLGELKNGLQKLGHQIPDVDLQILMEAADVDGDGSLNYGEFVAVSVHLRKMANDEHLHKAFSVFDRDQSGYIEIEELRSALSDEDGGNSEEVINAIMHDVDTDKDGRISYEEFAAMMKAGTDWRKASRQYSRERFNSLSLKLMRDGSIQVGKEEGR | the CDPK8 protein itself has kinase activity and can phosphorylate the SuSy3 protein | there is no autoradiographic band, indicating that CDPK8 cannot phosphorylate SISuSy3^S11A | CDPK8 can phosphorylate the serine at position 11 (S11) of the SuSy3 protein | 14 amino acid residues on the SuSy3 protein can be phosphorylated by CDPK8 protein, and the sites are T7, S11, T19, S152, S165, S174, T176, S191, S219, S360, T430, S535, T543, and S706 in sequence

— US20260103719
